This note sets out measurements from patent US20220127585A1.

Sequences and labels used below:
T1: B-Raf kinase, P15056
T1 chain: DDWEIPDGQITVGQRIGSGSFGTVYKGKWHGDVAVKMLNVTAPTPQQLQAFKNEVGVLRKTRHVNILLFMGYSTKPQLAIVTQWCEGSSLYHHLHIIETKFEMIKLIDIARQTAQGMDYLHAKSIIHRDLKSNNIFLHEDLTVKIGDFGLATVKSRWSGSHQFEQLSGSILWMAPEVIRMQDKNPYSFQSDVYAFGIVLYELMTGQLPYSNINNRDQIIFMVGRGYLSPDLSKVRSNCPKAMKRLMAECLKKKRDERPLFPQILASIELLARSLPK

Where no end group is shown, it is not given here. [ ]: non-standard residue; d: D form. code O = not defined here; Dab = NCC[C@H](N)C(=O)O

As usually defined, the Kd is a measure of binding affinity in units of concentration. Lower therefore signals a tighter complex.

One assay addresses T1, B-Raf kinase, P15056. The assay can be described thus: intrinsic tryptophan fluorescence (ITF), column head 'Kd (ITF) (µM)'.
Turning to TRHVNILLFMG (modifications not checked) [SEQ ID NO: 45 (…) with N-Cap N1], the Kd was determined as 50 nM.

TRHVNILLFMG (modifications not checked) [SEQ ID NO: 45 (…) with N-Cap N2] showed a Kd of 84 nM.

For the next assay, the target named is T1, B-Raf kinase, P15056. The assay can be described thus: binding affinity, Table 3 (method not given; the Methods describe fluorescence titration).
As to KRHVAELLFMG (modifications not checked) [SEQ ID NO: 47 (…)], the Kd is 590 nM. This lies in the sub-micromolar range.

In turn, LRKTRHVNILLFMG (modifications not checked) [SEQ ID NO: 31 (…)] returned an equilibrium dissociation constant (Kd) of 1880 nM.

KRHPAELLFMG (modifications not checked) [SEQ ID NO: 61 (…)] yielded a Kd of 160 nM. Compared with the last molecule, the Kd is about 12-fold lower.

VLRKKRHVNELLFMG (modifications not checked) [SEQ ID NO: 53 (…)] showed a Kd of 1890 nM.

Molecule VLRKKRHVAELLFMG (modifications not checked) [SEQ ID NO: 60 (VLRKKMe…)] had a Kd of 39 nM.

For VLRK[code O]RHVAELIFMG (reading uncertain) [SEQ ID NO: 58 (VLRKO…)], the dissociation constant (Kd) was determined as 170 nM.

The target of another assay is T1, B-Raf kinase, P15056. The assay can be described thus: binding affinity with BRAF, Table 2 (method not given; the Methods describe fluorescence titration).
VLRKTRHVNILLFM (modifications not checked) [SEQ ID NO: 16 (…)] came in with a dissociation constant Kd of 5750 nM.

VLRKKRHVNELLFMG (modifications not checked) [SEQ ID NO: 53 (…)] registered a Kd of 1890 nM.

In turn, V[Dab]RKKRHVNELLDMG [SEQ ID NO: 54 (VDab…)] yielded a Kd of 370 nM.

Molecule VCRKTRHVNILLCM (modifications not checked) [SEQ ID NO: 33 (…)] registered a Kd of 360 nM.

A further assay concerns the target T1, B-Raf kinase, P15056. Briefly: Kd for the B-Raf dimer interface (FIG. 1), fluorescence titration.
The molecule GVLLKTRHVNILLFMGYST (modifications not checked) [SEQ ID NO: 6] yielded a Kd of 540 nM.

In turn, GVLRKTRHVNILLFMGYST (modifications not checked) [SEQ ID NO: 1 (B-Raf residues 503-521, …)] came in with a Kd of 3840 nM.

A further assay addresses T1, B-Raf kinase, P15056. The assay can be described thus: ITC.
The molecule GVLRKARHVNILLFMGYST (modifications not checked) [SEQ ID NO: 8] had a ΔH of -8.32 kcal/mol.

The next assay has as its target T1, B-Raf kinase, P15056. Briefly: intrinsic fluorescence titration (ITF) of B-Raf in solution.
VLRKTRHVNALLFMG (modifications not checked) [SEQ ID NO: 27 (504-518 I513A, …)] registered a Kd of 2690 nM. This lies in the single-digit micromolar range.

Regarding LRKKRHVNELLFMG (modifications not checked) [SEQ ID NO: 37 (cyclo 508-513 T508K, I513E, …)], the dissociation constant (Kd) was determined as 1890 nM.

The molecule VARKTRHVNILLFMG (modifications not checked) [SEQ ID NO: 21 (504-518 L505A, …)] showed a Kd of 450 nM. This Kd lies about 4.2-fold lower than the previous one.

Take VLRKTRHVNILLAMG (modifications not checked) [SEQ ID NO: 29 (504-518 F516A, …)]: the dissociation constant Kd was determined as 570 nM.

With GVLRKTRHVNIALFMGYST (modifications not checked) [SEQ ID NO: 11 (503-521 L514A, …)], the Kd was 9800 nM.

Molecule GVLRKTRHANILLFMGYST (modifications not checked) [SEQ ID NO: 10 (503-521 V511A, …)] came in with a Kd of 4750 nM.

The molecule LRKTRHVNILLFMG (modifications not checked) [SEQ ID NO: 31 (…)] yielded a Kd of 190 nM.

In the case of VLAKTRHVNILLFMG (modifications not checked) [SEQ ID NO: 22 (504-518 R506A, …)], the Kd is 360 nM.

In turn, GVLRKDRHVNILLFMGYST (modifications not checked) [SEQ ID NO: 7 (503-521 T508D, …)] showed a Kd of 2200 nM.

Regarding VLRKTRAVNILLFMG (modifications not checked) [SEQ ID NO: 25 (504-518 H510A, …)], the Kd was 2700 nM.

The molecule GRINKGRHTFLLVVMTYSL (modifications not checked) [SEQ ID NO: 3 (scrambled, …)] yielded a dissociation constant (Kd) of 2960 nM.

With GVLRKTRHVNILLFMG (modifications not checked) [SEQ ID NO: 15 (503-518, …)], the Kd was 1880 nM.

GVARKTRHVNILLFMGYST (modifications not checked) [SEQ ID NO: 4 (503-521 L505A, …)] registered a Kd of 3890 nM. This Kd lies about 2.1-fold higher than the previous one.

Molecule VLRKTRHVNILLFAG (modifications not checked) [SEQ ID NO: 30 (504-518 M517A, …)] registered a Kd of 540 nM.

As for GVLRKTRHVNILIFMGYST (modifications not checked) [SEQ ID NO: 12 (503-521 L515I, …)], the Kd is 4100 nM.

In turn, LLKTRHVNILLFMG (modifications not checked) [SEQ ID NO: 32 (505-518 R506L, …)] returned a Kd of 550 nM.

In turn, VLRKTAHVNILLFMG (modifications not checked) [SEQ ID NO: 24 (504-518 R509A, …)] yielded a Kd of 2400 nM.

For the molecule GVLEKTRHVNILLFMGYST (modifications not checked) [SEQ ID NO: 5 (503-521 R506E, …)], the Kd turned out to be 1090 nM. Compared with the last molecule, the Kd is about 2.2-fold lower.

VLRKTRHVNIALFMG (modifications not checked) [SEQ ID NO: 28 (504-518 L514A, …)] displayed a Kd of 1020 nM.
